Experimental findings from US20250268980A1, “AN ANTICANCER THERAPY TARGETING RAS AND OTHER ONCOGENIC SIGNALS BY INHIBITION OF DYNAMIC BLEBBING AND/OR SEPTINS” (THE BOARD OF REGENTS OF THE UNIVERSITY OF TEXAS SYSTEM, priority 2022, published 2025) are described below.

The target in test [1] is All Septins. Nature of the test: HaloLink pulldown from unperturbed A375 cells, LC-MS/MS.
The target of test [2] is All Septins. Nature of the test: HaloLink pulldown from MV3 cells, LC-MS/MS.

B1: mouse SEPT6-HALO (protein, UniProt Q9R1T4 2-434, looked up, not shown: small tags and cut ends; large carriers)
chain: AAADIARQVGEDCRTVPLAGHVGFDSLPDQLVNKSVSQGFCFNILCVGETGLGKSTLMDTLFNTKFEGEPATHTQPGVQLQSNTYDLQESNVGLKLTIVSTVGFGDQINKEDSYKPIVEFIDAQFEAYLQEELKIRRVLHSYHDSRIHVCLYFIAPTGHSLKSLDLVTMKKLDSKVNIIPVIAKSDAISKSELAKFKIKITSELVSNGVQIYQFPTDDESVSEINGTMNAHLPFAVVGSTEEVKIGNKMMRARQYPWGTVQVENEAHCDFVKLREMLIRVNMEDLREQTHARHYELYRRCKLEEMGFKDTDPDSKPFSLQETYEAKRNEFLGELQKKEEEMRQMFVQRVKEKEAELKEAEKELHEKFDRLKKLHQEEKKKLEDKKKCLDEEMNAFKQRKAAAELLQSQGSQAGGSQTLKRDKEKKNNPWLCIE
On to B1, for which, in test [1], the % of total protein abundance is 7.04%; the fold change between lysate and pulldown (% of total protein abundance) is 56 fold. In test [2], this molecule had a % of total protein abundance of 8.06%; a fold change between lysate and pulldown (% of total protein abundance) of 35.9 fold.
